Residue numbers refer to the chain shown, from its start.
B1: Round 2 CTLA4BP 2x1-g8 (ligand)
chain: VIHVTKEVKEVATLSCGHNVSVEELAQTRIHWQKEKKMVLTMMSGDMNIWPEYKNRTIFDITNNLSVVILALRPSDEGTYECVVLKYEKDAFKREHLAEVTLSVKADFPTPSITDFEIPPSNIRRIICSTSGGFPEPHLSWLENGEELNAINTTVSQDPGTELYTVSSKLDFNMTTNRSFVCLIKYGHLRVNQTFNWNTPKQEHFPDNLLPSWAITLISVNGIFVICCLTYCFAPRCRERKSNERLRRESVRPV
B2: Round 2 CTLA4BP 5x2-b7 (ligand)
chain: B1 chain with V67I, T176A, R178H, V220A, K241R, S242R
B3: Round 2 CTLA4BP 5x5-h12 (ligand)
chain: B1 chain with E7K, V67I, T101M, T114S, N177D, K241R, S242R, E244G
B4: Round 2 CTLA4BP-5x2-3c (ligand)
chain: VIHVTREVKEVATLSCGHNVSVEELAQTRIHWQKEKKMVLTMMSGDMNIWPEYKNRTIFDITNNLSIVILALRPSDEGTYECVVLKYEKDAFKREHLAEVMLSVKADFPTPSISDFEIPTSNIRRIICSTSGGFPEPHLSWLENGEELNAINTTVSQDPETGLYTVSSKLDFNMTTNHSFMCLIKYGHLRVNQTFNWNTPKQEHFPDNLLPSWAITLISVNGIFVICCLTYCFAPRCRERRRNERLRRESVCPV
B5: Round 2 CTLA4BP 5x2-e12 (ligand)
chain: B1 chain with D46G, V67I, T114S, P120T, N152S, T165A, P200T, K241R, S242R
B6: Round 2 CTLA4BP 5x2-d7 (ligand)
chain: B4 chain with V4M, R6K, H18L, T120P, C252R
B7: Round 2 CTLA4BP 5x5-c10 (ligand)
chain: VIHVTKEVKEVATLSCGHNVSVEELAQTRIYWQKEKKMVLTMMSGDMNIWPEYKNRTIFDITNNLSIVILALRPSDEGTYECVVLEYEKDAFKREHLAEVTLSVKADFPTPSITDFEIPPSNIRRIICSTSGGFPEPHLFWLENGEELNAISTTVSQDPETELYAVSSKLDFNMTTNHSFMCLIKYGHLRVNQTFNWNTTKQEHFPDNLLPSWAITLISVNGIFVICCLTYCFAPRCRERRRNERLRRESVHPV
B8: Round 2 CTLA4BP 5x9-d10 (ligand)
chain: VIHVTKEVKEVATLSCGLNVSVEELAQTRIYWQKGKKMVLTMMSGDMNIWPEYKNRTIFDITNNLSIVILALRPSDEGTYECVVLEYEKDAFKREHLAEVMLSVKADFPTPSISDFEIPPSNIRRIICSTSGGFPEPHLSWLENGEELNAINTTASQDPGTELYTVSSKLDFNMTTNHSFMCLIKYGHLRVNQTFNWNTPKQEHFPDNLLPSWAITLISVNGIFVICCLTHCFAPRCRERRRNERLRRESARPV
B9: Round 2 CTLA4BP 5x3-e8 (ligand)
chain: B7 chain with T114S, P120T, S152N, A165T, T176A, M181V, T200P, R236G, H252C
B10: Round 2 CTLA4BP-5x2-2g (ligand)
chain: B1 chain with V67I, T101M, P120T, G160E, R178H, V181M, C232R
B11: Round 2 CTLA4BP-5X2-12F (ligand)
chain: B1 chain with V67I, R124K, G160E, R178H, V181M, L209P, V220A, K241R, S242R, R245T
B12: Round 2 CTLA4BP 5x2-f3 (ligand)
chain: B1 chain with H31Y, S44P, V67I, K86R, T114S, P120T, V155A, G160E, V220A, Y231H
B13: Round 2 CTLA4BP 2x1-h12 (ligand)
chain: B1 chain with H18L, V67I, T101M, R178H, V181M, V220A, R252C
B14: Round 2 CTLA4BP 5x6-f6 (ligand)
chain: VIHVTKEVKEVATLSCGHNVSVEELAQTPIYWQKEKKMVLTMMSGDMNIWPEYKNRTIFDITNNLSIVILALRPSDEGTYECVVLKYEKDAFKREHLAEVMLSVKADFPTPSITDFEIPPSNIRRIICSTSGGFPEPHLFWLENGEELNAINTTVSQDPETELYTVSSKLDFNMTTNRSFVCLIKYGHLRVNQTFNWNTPKQEHFPDNLLPSWAITLISANGIFVICCLTYRFAPRCRERRRNERLRRESVCPV
B15: Round 2 CTLA4BP 5x2-h11 (ligand)
chain: VIHVTKKVKEVATLSCGHNVSVEELAQTRIYWQKGKKMVLTMMSGDMNIWPECKNRTIFDITNNLSIVILALRPSDEGTYECAVLKYEKDAFKREHLAEVTLSVKADFPTPSISDFEIPTSNIRRIICSTSGGFPEPHLFWLENGEELNAINTTASQDPETELYAVSSKLDFNMTTNHSFMCLIKYGHLRVNQTFNWNTPKQEHFPDNLLPSWAITLISVNGIFVICCLTYCFAPRCRERKSNERLRRESVRPV
B16: Round 2 CTLA4BP 5x1-d7 (ligand)
chain: B7 chain with S21P, E81G, T101M, F116L, S152N, V155A, T200P, V220A
B17: Round 2 CTLA4BP 2x4-h11 (ligand)
chain: B8 chain with L18H, G35E, A155V, T165A, T230A, H231Y, E239G, A251V
B18: Round 2 CTLA4BP 2x2-f12 (ligand)
chain: B4 chain with R6K, E81G, K86E, T120P, G162E, T165A, V191A, C252R
B19: Round 2 CTLA4BP 5x4-h1 (ligand)
chain: B4 chain with R6K, E95K, S140F, V155A, G162E, H178R, M181V, D207N, R245T, C252H
B20: Round 2 CTLA4BP 5x3-c3 (ligand)
chain: B4 chain with V4M, R6K, H18P, H31Y, M101T, E160G, G162E, Y231H
B21: Round 2 CTLA4BP 5x4-a1 (ligand)
chain: B1 chain with H31Y, Y53H, V67I, P120T, K241R, S242R
B22: Round 2 CTLA4BP 2x2-f1 (ligand)
chain: B1 chain with V67I, P74L, T114S, P120T, S140F, V155A, G160E, K241R, S242R
B23: Round 2 CTLA4BP 5x1-f1 (ligand)
chain: VIHVTKEVKEVATLSCGLNVSVEELAQTRIYWQKEKKMVLTMMSGDMNIWPEHKNRTIFDITNNLSIVILALRPSDEGTYECVVLKYEKDAFKREHLAEVTLSVKADFPTPSITDFEIPPSNIRRIICSTSGGFPEPHLFWLENGEELNAINTTASQDPETELYTVSSKLDFNMTANHSFVCLIKYGHLRVNQTFNWNTPKQEHFPDNLLPSWAITLISVNGIFVICCLTYCFAPRCRERRRNETLRRESVRPV
B24: Round 2 CTLA4BP 5x3-c4 (ligand)
chain: VIHVTKEVKEVATLSCGHNVSVEELAQTRIYWQKEKKMVLTMMSGDMNIWPEYKNRTIFDITNNLSIVILALRPSDEGTYECVVLKYEKDAFKREHLAEVTLSVKADFPTPSISDFEIPPSNIRRIICSTSGGFPEPRLAWMEDGEELNAINTTASQDPETELYTVSSKLDFNMTTNRSFVCLIKYGHLRVNQTFNWNTPKQEHFPDNLFPSWAITLISVNGIFVICCLTYCFAPRCRERRRNERLRRESVRPV

The binders below were run against T1, Soluble CTLA-4-Ig (extracellular domain of human CTLA-4 fused to the Fc portion of human IgG1) (human, UniProt P16410 36-161, FITC-conjugated in the FACS binding assays) (assay: competitive FACS on transfected cells, FITC-sCTLA-4-Ig with biotin-sCD28-Ig; grade 0-2 of CTLA-4/CD28 ratio vs WT hB7-1).
T1 construct: extracellular domain; bought from R&D Systems; also called sCTLA-4-Ig; CTLA-4-Ig Fc; not shown: Fc portion of human IgG1
T1 sequence (P16410 36-161): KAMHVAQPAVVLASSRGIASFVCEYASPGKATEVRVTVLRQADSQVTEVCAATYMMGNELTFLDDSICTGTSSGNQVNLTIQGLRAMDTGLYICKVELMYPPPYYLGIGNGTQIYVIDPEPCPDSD

| Binder | Binding Score |
| --- | --- |
| B1 | 1 |
| B2 | 1 |
| B3 | 1 |
| B4 | 2 |
| B5 | 0 |
| B6 | 1 |
| B7 | 1 |
| B8 | 1 |
| B9 | 1 |
| B10 | 2 |
| B11 | 1 |
| B12 | 0 |
| B13 | 1 |
| B14 | 1 |
| B15 | 1 |
| B16 | 1 |
| B17 | 0 |
| B18 | 1 |
| B19 | 2 |
| B20 | 1 |
| B21 | 0 |
| B22 | 1 |
| B23 | 1 |
| B24 | 1 |
